# Reference: US20230357395A1 (MARENGO THERAPEUTICS, published 2023)
# Numbering of substitutions follows the chain as printed. Numbers in names are those of the source.
# T1: Human NKp30, construct BKM0179 (human, UniProt O14931 19-135, limits assumed)
# T1 construct: Immobilized on a CM5 chip via anti-mouse Fc antibody, so it likely carries a mouse Fc; also called Human Nkp30 (BKM0179)
# T1 sequence (looked up): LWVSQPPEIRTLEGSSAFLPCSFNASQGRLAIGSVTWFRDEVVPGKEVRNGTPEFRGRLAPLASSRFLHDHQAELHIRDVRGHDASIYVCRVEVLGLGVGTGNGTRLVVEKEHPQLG
# B1: BJM0578 (bivalent) (antibody, V domains shown)
# VH: QVQLVQSGAEVKKPGSSVKVSCKASGYTFTGYVMHWVRQAPGQGLEWMGFIIPIFGTANYAQKFQGRVTITSDKSTTTAYMELSSLRSEDTAVYYCARGAGYNFDGAYRFFDFWGQGTLVTVSS
# VL: DVVMTQSPLSLPVTLGQPASISCRSSQRLVHSNGNTYLHWYQQRPGQSPRLLIYRVSNRFPGVPDRFSGSGSGTDFTLKISRVEAEDVGVYFCSQSTHVPYTFGGGTKVEIK
# notes: Bivalent construct with a human Fc
# B2: BKM0193 (single arm) (antibody, V domains shown)
# VH: B1 VH
# VL: B1 VL with G34A, T36A
# notes: Single arm anti-TRBC1 construct with human Fc; also called G29A T31A
# B3: BKM0194 (single arm) (antibody, V domains shown)
# VH: B1 VH
# VL: B1 VL with N33G
# notes: Single arm anti-TRBC1 construct with human Fc; also called N28G
# B4: BKM0192 (single arm) (antibody, V domains shown)
# VH: B1 VH
# VL: B1 VL with T36A
# notes: Single arm anti-TRBC1 construct with human Fc; also called T31A
# B5: BKM0191 (single arm) (antibody, V domains shown)
# VH: B1 VH
# VL: B1 VL with G34A
# notes: Single arm anti-TRBC1 construct with human Fc; also called G29A
# B6: BKM0195 (single arm) (antibody, V domains shown)
# VH: B1 VH
# VL: B1 VL with N35S
# notes: Single arm anti-TRBC1 construct with human Fc; also called N30S
# B7: BIM0460 (bivalent) (antibody, V domains shown)
# VH: QVQLVQSGAEVKKPGSSVKVSCKASGYTFTGYVMHWVRQAPGQGLEWMGFINPYNDDIQSNERFRGRVTITSDKSTTTAYMELSSLRSEDTAVYYCARGAGYNFDGAYRFFDFWGQGTLVTVSS
# VL: B1 VL
# notes: Bivalent construct with a human Fc (captured via anti-human Fc antibody)
# B8: BKM0196 (single arm) (antibody, V domains shown)
# VH: B1 VH
# VL: B1 VL with N33G, N35S
# notes: Single arm anti-TRBC1 construct with human Fc; also called N28G N30S
# B9: BKM0140 (scFv)
# scFv: EIQLLESGGGLVQPGGSLRLSCAVSGFSITTTGYHWNWVRQAPGKGLEWVGYIYSSGSTSYNPSLKSRFTISRDTSKNTFYLQMNSLRAEDTAVYYCARGDWHYFDYWGQGTMVTVSSGGGGSGGGGSGGGGSGGGGSSSETTQPPSVSVSPGQTASITCSGEKLSDKYVHWYQQKPGQSPVMVIYENDRRPSGIPERFSGSNSGNTATLTISGTQAMDEADYFCQFWASTNSAVFGGGTQLTVL
# notes: also called BJM0407 VL-D92A
# B10: BKM0145 (scFv)
# scFv: B9 scFv with N62A, N232A
# notes: also called BJM0407 VH-N60A-VL-D92A-N95A
# B11: BKM0143 (scFv)
# scFv: B9 scFv with N62A, A229D
# notes: also called BJM0407 VH-N60A
# B12: BKM0141 (scFv)
# scFv: B9 scFv with A229D, N232A
# notes: also called BJM0407 VL-N95A
# B13: BJM1078 (BJM0407 Parental) (antibody, V domains shown)
# VH: EIQLLESGGGLVQPGGSLRLSCAVSGFSITTTGYHWNWVRQAPGKGLEWVGYIYSSGSTSYNPSLKSRFTISRDTSKNTFYLQMNSLRAEDTAVYYCARGDWHYFDYWGQGTMVTVSS
# VL: SSETTQPPSVSVSPGQTASITCSGEKLSDKYVHWYQQKPGQSPVMVIYENDRRPSGIPERFSGSNSGNTATLTISGTQAMDEADYFCQFWDSTNSAVFGGGTQLTVL
# B14: BJM1079 (BJM0411 Parental) (antibody, V domains shown)
# VH: B13 VH
# VL: DSVTTQSPLSLPVTLGQPASISCSGEKLSDKYVHWYQQRPGQSPRMLIYENDRRPSGVPDRFSGSNSGNDATLKISRVEAEDVGVYFCQFWDSTNSAVFGGGTKVEIK
# B15: BKM0138 (scFv)
# scFv: EIQLLESGGGLVQPGGSLRLSCAVSGFSITTTGYHWNWVRQAPGKGLEWVGYIYSSGSTSYNPSLKSRFTISRDTSKNTFYLQMNSLRAEDTAVYYCARGDWHYFDYWGQGTMVTVSSGGGGSGGGGSGGGGSGGGGSDSVTTQSPLSLPVTLGQPASISCSGEKLSDKYVHWYQQRPGQSPRMLIYENDRRPSGVPDRFSGSNSGNDATLKISRVEAEDVGVYFCQFWDSTASAVFGGGTKVEIK
# notes: also called BJM0411 VL-N95A
# B16: BKM0142 (scFv)
# scFv: B15 scFv with N62A, A233N
# notes: also called BJM0411 VH-N60A
# B17: BKM0144 (scFv)
# scFv: B15 scFv with N62A, D230A
# notes: also called BJM0411 VH-N60A-VL-D92A-N95A
# B18: BKM0139 (scFv)
# scFv: B15 scFv with D230A, A233N
# notes: also called BJM0411 VL-D92A
# B19: BKM0313 (TRBC2/NKp30 bispecific) (bispecific antibody, human IgG1, kappa, N297A)
# heavy: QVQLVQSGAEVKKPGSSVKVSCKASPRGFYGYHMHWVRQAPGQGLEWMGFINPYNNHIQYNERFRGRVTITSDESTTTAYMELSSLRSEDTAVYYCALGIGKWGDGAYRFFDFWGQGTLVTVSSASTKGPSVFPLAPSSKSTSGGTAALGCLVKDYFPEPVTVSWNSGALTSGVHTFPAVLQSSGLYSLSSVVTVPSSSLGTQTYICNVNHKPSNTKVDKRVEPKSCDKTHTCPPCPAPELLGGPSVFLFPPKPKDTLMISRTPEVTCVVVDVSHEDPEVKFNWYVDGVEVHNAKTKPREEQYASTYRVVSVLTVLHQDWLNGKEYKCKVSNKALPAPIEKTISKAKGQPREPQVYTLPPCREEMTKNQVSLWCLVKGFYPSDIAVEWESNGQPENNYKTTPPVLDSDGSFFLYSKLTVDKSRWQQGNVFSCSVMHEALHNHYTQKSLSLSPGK
# light: DVVMTQSPLSLPVTLGQPASISCRSSKNLVHSNGRTYLQWYQQRPGQSPRLLIYRVSNRFPGVPDRFSGSGSGTDFTLKISRVEAEDVGVYFCSQSTREPYTFGGGTKVEIKRTVAAPSVFIFPPSDEQLKSGTASVVCLLNNFYPREAKVQWKVDNALQSGNSQESVTEQDSKDSTYSLSSTLTLSKADYEKHKVYACEVTHQGLSSPVTKSFNRGEC
# scFv: EIQLLESGGGLVQPGGSLRLSCAVSGFSITTTGYHWNWVRQAPGKGLEWVGYIYSSGSTSYNPSLKSRFTISRDTSKNTFYLQMNSLRAEDTAVYYCARGDWHYFDYWGQGTMVTVSSGGGGSGGGGSGGGGSGGGGSDSVTTQSPLSLPVTLGQPASISCSGEKLSDKYVHWYQQRPGQSPRMLIYENDRRPSGVPDRFSGSNSGNDATLKISRVEAEDVGVYFCQFWDSTNSAVFGGGTKVEIKDKTHTCPPCPAPELLGGPSVFLFPPKPKDTLMISRTPEVTCVVVDVSHEDPEVKFNWYVDGVEVHNAKTKPREEQYASTYRVVSVLTVLHQDWLNGKEYKCKVSNKALPAPIEKTISKAKGQPREPQVCTLPPSREEMTKNQVSLSCAVKGFYPSDIAVEWESNGQPENNYKTTPPVLDSDGSFFLVSKLTVDKSRWQQGNVFSCSVMHEALHNHYTQKSLSLSPGK
# notes: Knob chain TRBC2 Fab-Fc and hole chain NKp30 scFv-Fc; also called Anti-TRBC2-NKp30-BIS-9
# B20: BKM0314 (TRBC2/NKp30 bispecific) (bispecific antibody, human IgG1, kappa, N297A)
# heavy: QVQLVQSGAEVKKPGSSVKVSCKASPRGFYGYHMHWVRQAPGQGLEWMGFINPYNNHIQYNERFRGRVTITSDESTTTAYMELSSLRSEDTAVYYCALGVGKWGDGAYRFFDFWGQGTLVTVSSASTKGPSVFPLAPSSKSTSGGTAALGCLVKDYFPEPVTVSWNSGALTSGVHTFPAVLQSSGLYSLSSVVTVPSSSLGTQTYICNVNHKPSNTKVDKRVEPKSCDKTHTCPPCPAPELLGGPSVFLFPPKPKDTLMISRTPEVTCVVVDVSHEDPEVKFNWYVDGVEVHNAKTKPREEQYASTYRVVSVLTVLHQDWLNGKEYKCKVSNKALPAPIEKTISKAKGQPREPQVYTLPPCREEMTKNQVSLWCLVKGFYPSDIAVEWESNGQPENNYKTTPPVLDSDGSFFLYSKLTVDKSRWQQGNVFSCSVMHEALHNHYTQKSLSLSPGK
# light: B19 light
# scFv: B19 scFv
# notes: Knob chain TRBC2 Fab-Fc and hole chain NKp30 scFv-Fc; also called Anti-TRBC2-NKp30-BIS-10
# Target: T2, human TRBC1 (hTRBC1), construct BIM0443 (human, UniProt P01850 1-129, limits assumed)
# T2 construct: also called Human TRBC1 (BIM0443); BIM0443 (hTRBC1)
# Experiment: SPR (BIAcore T200), antibody captured via anti-human Fc on CM5, hTRBC1 BIM0443 injected 15.6-500 nM, 1:1 fit
# Description: (§1) In this example, a series of exemplary anti-TRBC1 antibody molecules were analyzed for their binding affinity for TRBC1. Briefly, surface plasmon resonance (SPR) measurements were performed by using the BIAcore T200. Each of the exemplary anti-TRBC1 antibody constructs was immobilized on a CM5 chip via anti-human Fc antibody to a response of 50 RU. […] The data was fit using a 1:1 binding model.
# T2 sequence (P01850 1-129 limits assumed): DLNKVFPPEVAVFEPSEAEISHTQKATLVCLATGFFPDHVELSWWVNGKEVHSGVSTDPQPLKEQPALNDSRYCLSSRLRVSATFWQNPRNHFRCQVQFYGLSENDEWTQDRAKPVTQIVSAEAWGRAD
row,Kd,Binder
1,75 nM,B1
2,360 nM,B2
3,180 nM,B3
4,138 nM,B4
5,75 nM,B5
6,317 nM,B6
7,10 nM,B7
8,690 nM,B8

# Target: T3, human TRBC2 (hTRBC2), construct BIM0445 (human, UniProt A0A5B9 1-129, limits assumed)
# T3 construct: also called BIM0445 (hTRBC2)
# Experiment: SPR (BIAcore T200), antibody captured via anti-human Fc
# T3 sequence (A0A5B9 1-129 limits assumed): as the sequence (P01850 1-129 limits assumed) above, with N3K, K4N, E9K, F36Y counted along it
row,binding result,Binder
1,no binding,B1
2,no binding,B2
3,no binding,B3
4,no binding,B4
5,no binding,B5
6,no binding,B6
7,no binding,B7
8,no binding,B8

# Target: T1, Human NKp30, construct BKM0179
# Experiment: SPR (BIAcore T200), human NKp30 BKM0179 captured via anti-mouse Fc on CM5, antibody injected 3.9-125 nM, 1:1 fit
# Description: as §1, with “anti-NKp30” for “anti-TRBC1”, “NKp30.” for “TRBC1.”, “Human NKp30 (BKM0179)” for “Each of the exemplary anti-TRBC1 antibody constructs”, “anti-mouse” for “anti-human”
row,Kd,Binder
1,3.3 nM,B9
2,4.2 nM,B10
3,1.45 nM,B11
4,3 nM,B12
5,1.48 nM,B13
6,1.26 nM,B14
7,3.2 nM,B15
8,1.28 nM,B16
9,6.4 nM,B17
10,3.2 nM,B18

# Target: T4, human TRBC2 (construct not named) (human, UniProt A0A5B9 1-129, limits assumed)
# T4 construct: also called hTRBC2
# Experiment: SPR, bispecific captured via anti-human Fc on CM5, hTRBC2 from 125 nM in two-fold dilutions, 1:1 fit
# Description: In this example, surface plasmon resonance assay was performed to check binding of anti-TRBC2xNKp30 bispecific antibodies (bispecifics) to either hTRBC2, hTRBC1 or hNKp30 proteins. […] The bispecific antibodies may or may not have an N297A mutation in their Fc regions. FIG. 31B represents a design for monovalent TRBC2 control. Briefly, TRBC2xNKp30 bispecifics at 2 ug/mL were immobilized on CM5 chip via anti-human Fc antibody to 70 RU. Human TRBC2 or human TRBC1 antigens were diluted to 125 nM and then serially diluted two-fold. Association was 300 seconds and dissociation were 600 seconds. This assay was run in 1 x HBS-EP+ Buffer pH 7.4 and 25 C. The data was fit using a 1:1 binding model assess binding of bispecifics to NKp30, human NKp30 at 2 ug/mL was immobilized on CM5 chip via Anti-mouse Fc antibody to 70 RU. TRBC2xNKp30 bispecifics were diluted to 50 nM and then serially diluted two-fold. Association was 300 seconds and dissociation were 600 seconds. This assay was run in 1 x HBS-EP+ Buffer pH 7.4 and 25 C. The data was fit using a 1:1 binding model.
# T4 sequence (A0A5B9 1-129 limits assumed): as the sequence (P01850 1-129 limits assumed) above, with N3K, K4N, E9K, F36Y counted along it
row,Kd,Binder
1,148 nM,B19
2,92 nM,B20
